Two molecules from US7521540B2, “CYR61 compositions and methods” (Munin Corporation, priority 1996, dated 2009) can be followed below.

Assay [1] has as its system cornea. The assay can be described thus: Cornea assay for angiogenic factors. The class given is in vivo, rat. The settings on record: for angiogenic effect in cornea assay: rat, in vivo. The text has this:
Another assay for modulators of angiogenesis is an in vivo assay for assessing the effect of a suspected modulator in the presence of an ECM signaling molecule-related biomaterial, such as Cyr61, on angiogenesis is the Cornea Assay. The Cornea Assay takes advantage of the absence of blood vessels in the cornea, which in the presence of an angiogenic factor, results in the detectable development of capillaries extending from the sclera into the cornea. Friedlander et al., Science 270:1500-1502 (1995). This ingrowth of new blood vessels from the sclera can be microscopically monitored. Further, the visually determined rate of migration can be used to assess changes in the rate of angiogenesis. These cornea assays may be performed using a wide variety of animal models. Preferably, the cornea assays are performed using rats. By way of example, an assay for suspected modulators of Cyr61 using this assay is disclosed. To perform this assay, Cyr61 is initially titrated using primary capillary endothelial cells to determine effective concentrations of Cyr61. Subsequently, Cyr61, in the presence or absence of a suspected modulator, is surgically implanted into the corneas of mammalian laboratory animals, e.g., rabbits or rats. In a preferred embodiment, Cyr61 (or Cyr61 and a suspected modulator) is embedded in a biocompatible matrix, using matrix materials and techniques that are standard in the art. Subsequently, eyes containing implants are visually observed for growth of the readily visible blood vessels within the eye. Control implantations may consist of physiologically balanced buffers embedded in the same type of matrix and implanted into eyes of the same type of laboratory animal receiving the Cyr61-containing implants.
Although rats of various sizes can be used in the cornea assay, a preferred size for the rats is 150-200 g/animal. Anesthesia is induced with Methoxyflurane and is maintained for 40-60 minutes with sodium pentobarbital (50 mg/kg, delivered intraperitoneally). The eyes are gently opened and secured in place by clamping the upper eyelid with a non-traumatic hemostat. Two drops of sterile proparacaine hydrochloride (0.5%) are then placed on each eye as to effect local anesthesia. Using a suitable surgical blade such as a No. 11 Bard Parker blade, an approximately 1.5 mm incision is made approximately 1 mm from the center of the cornea. […] Once the cornea pocket is made, the spatula is removed and the distance between the limbus and base of the pocket is measured to make sure the separation is at least about 1 mm. […]
Following surgery, animals are examined daily for seven days with the aid of a stereomicroscope to check for inflammation and responses. […] During this seven day period, animals are monitored for implant position and corneal exudate. […]

Assay [2] has as its system mink lung epithelial cells (Mv1lu, CCL64). The assay can be described thus: TGF-β inhibition of DNA synthesis. The class given is cell-based. The settings on record: 2 μg/ml, 18 hours. As to the method:
(§1) DNA synthesis for HUVE cells and NIH 3T3 fibroblasts was measured by thymidine incorporation as described previously (Kireeva et al., [1996]) with minor modifications. HUVE cells were grown in 24-well plates to a subconfluent state, serum-starved for 24 hours and treated with F12K medium containing 10% fetal bovine serum (FBS), 1 μCi/ml [^3H]-thymidine and 10 ng/ml basic Fibroblast Growth Factor (bFGF) (Gibco-BRL, Inc.) with various concentrations of Cyr61 and Fisp12 as indicated. NIH 3T3 fibroblasts were grown to subconlfluence, serum-starved for 48 hours, and treated with Minimal Essential Medium (MEM) containing 0.5% FBS, 1 μCi/ml [^3H]-thymidine, bFGF and various concentrations of Cyr61 or Fisp12. Thymidine incorporation into the trichloroacetic acid-insoluble fraction was determined after 24 hour incubation. Logarithmically grown mink lung epithelial cells (Mv1lu, CCL64) were treated with various concentrations of TGF-β1 (Gibco-BRL) and 2 μg/ml of Cyr61 or Fisp12 for 18 hours; [^3H]-thymidine was then added to 1 μCi/ml for 2 hours. Thymidine incorporation was determnined as described above.

Assay [3] has as its system HUVE cells. Briefly: Cell spreading assay. It counts as cell-based, human. The settings on record: dishes coated with 10 μg/ml, 2 hours. As to the method: In another embodiment of the invention, the effect of murine Cyr61 on cell morphogenesis was assessed by a cell spreading assay. Polystyrene Petri dishes were coated with 2 ml of a 10 μg/ml solution of Cyr61 or fibronectin in PBS with 0.1% BSA and treated as described above. A third plate was treated with BSA and served as a control. Each dish received 7×10^6 cells and was incubated for 2 hours. Cell spreading was analyzed by microscopy at 100-fold magnification.

Assay [4] has as its system HUVE cells. Briefly: Thymidine incorporation (mitogen potentiation), HUVE cells. The class given is cell-based, human. As to the method:
Human umbilical vein endothelial cells were plated essentially as described above for 3T3 cells and exposed to a constant amount of murine Cyr61; controls received no Cyr61. Different plates were then exposed to different levels of bFGF, comprising a series of bFGF concentrations ranging from 0-10 ng/ml. […] At 1 ng/ml bFGF, however, HUVE cells increased their thymidine incorporation in the presence of bFGF to 6×10^2 cpm; in the presence of 1 ng/ml bFGF and murine Cyr61, HUVE cells incorporated 1.3×10^3 cpm. At 10 ng/ml bFGF, cells exposed to bFGF incorporated about 1.8×10^3 cpm thymidine; cells receiving 10 ng/ml bFGF and Cyr61 incorporated approximately 6.1×10^3 cpm.
The capacity of murine Cyr61 to potentiate the mitogenic activity of bFGF was verified by a thymidine incorporation assay involving HUVE cells and various combinations of bFGF, Cyr61, and anti-Cyr61 antibodies. Cells were plated and grown as described above. The following combinations of supplements (final plate concentrations noted parenthetically) were then pre-incubated for 1 hour before addition to individual plates: 1) pre-immune antiserum (3%); 2) bFGF (15 ng/ml) and pre-immune antiserum (3%); 3) pre-immune antiserum (3%) and Cyr61 (4 μg/ml); 4) pre-immune antiserum (3%), Cyr61 (4 μg/ml), and bFGF (15 ng/ml); 5) anti-Cyr61 antiserum (3%); 6) anti-Cyr61 antiserum and bFGF (15 ng/ml); 7) anti-Cyr61 antiserum (3%) and Cyr61 (4 μg/ml); and 8) anti-Cyr61 antiserum (3%), Cyr61 (4 μg/ml), and bFGF (15 ng/ml).
as §1

B1: Cyr61: Cysteine-rich ECM signaling protein; murine sequence SEQ ID NO:2, recombinant from Baculovirus-infected Sf9 cells (protein, listed as Mus musculus)
chain: MSSSTFRTLAVAVTLLHLTRLALSTCPAACHCPLEAPKCAPGVGLVRDGCGCCKVCAKQLNEDCSKTQPCDHTKGLECNFGASSTALKGICRAQSEGRPCEYNSRIYQNGESFQPNCKHQCTCIDGAVGCIPLCPQELSLPNLGCPNPRLVKVSGQCCEEWVCDEDSIKDSLDDQDDLLGLDASEVELTRNNELIAIGKGSSLKRLPVFGTEPRVLFNPLHAHGQKCIVQTTSWSQCSKSCGTGISTRVTNDNPECRLVKETRICEVRPCGQPVYSSLKKGKKCSKTKKSPEPVRFTYAGCSSVKKYRPKYCGSCVDGRCCTPLQTRTVKMRFRCEDGEMFSKNVMMIQSCKCNYNCPHPNEASFRLYSLFNDIHKFRD
With B1, the “eyes showing blood vessel growth after seven days” value in assay [1] (FGF 0.15 μM (six animals), Cyr61 1 μg/ml (seven animals)) is given as “all seven”. Besides, the “angiogenic effect in cornea assay” value in assay [1] was “confirm the effect of angiogenic factors”. Also, in assay [2], the “effect on TGF-β inhibition of DNA synthesis” value is “enhanced the ability of TGF-β to inhibit DNA synthesis”. Besides, the “HUVE cell spreading” value in assay [3] is listed as “induces HUVE cell spreading to approximately the same extent as fibronectin”. Moreover, the “thymidine incorporation, baseline” value in assay [4] (0-0.1 ng/ml bFGF, presence or absence of Cyr61, 72 hours) was “approximately 4×10^2 cpm”. Further, the “thymidine incorporation with bFGF and Cyr61” value is reported as 1.3×10^3 cpm in assay [4] (1 ng/ml bFGF) and “approximately 6.1×10^3 cpm” in assay [4] (10 ng/ml bFGF).

B2: Fisp12: Cysteine-rich murine protein, SEQ ID NO:6, mouse ortholog of CTGF (protein, listed as Mus musculus)
chain: MLASVAGPISLALVLLALCTRPATGQDCSAQCQCAAEAAPHCPAGVSLVLDGCGCCRVCAKQLGELCTERDPCDPHKGLFCDFGSPANRKIGVCTAKDGAPCVFGGSVYRSGESFQSSCKYQCTCLDGAVGCVPLCSMDVRLPSPDCPFPRRVKLPGKCCKEWVCDEPKDRTAVGPALAAYRLEDTFGPDPTMMRANCLVQTTEWSACSKTCGMGISTRVTNDNTFCRLEKQSRLCMVRPCEADLEENIKKGKKCIRTPKIAKPVKFELSGCTSVKTYRAKFCGVCTDGRCCTPHRTTTLPVEFKCPDGEIMKKNMMFIKTCACHYNCPGDNDIFESLYYRKMYGDMA
Regarding B2, the “angiogenic effect in cornea assay” value in assay [1] is reported as “confirm the effect of angiogenic factors”. Moreover, the “effect on TGF-β inhibition of DNA synthesis” value in assay [2] is “enhanced the ability of TGF-β to inhibit DNA synthesis”. For the same molecule, in assay [4] (HUVE-cells, bFGF 10 ng/ml), the “enhancement of FGF-induced DNA synthesis” value is “enhance DNA synthesis induced by fibroblast growth factor”.
